# Assay results from a protein production outcome set (Wang et al. 2014).
# Assay: label from the status in PepcDB records
# 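Further: failed if final PepcDB status was selected cloned or expressed and not failed if soluble or beyond.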
row,Sequence,protein production
1,AAIILHEIYGINAHIQRAGHEWMTRGFDIYIPALFPHHTPFRYEQQEEAYRHFSANVGFDPAVVTTLLHELRTQYETLIVVGYSVGATLAWLSAASGLCDGVICYYGSRIRQYLHLAPLCPTLVIIARYEPAFDPLAMRQTLEKRPRVQCKMYDARHGFCDADSATFDAALSHQVMDDVSAFIRDI,failed
2,AAIRHITTGTYIARIREEYQQTEVKPELQPMKEALARMTDRAEALIAFVTEQKDQELLDFQARRLVEMTAHAVFGHLLMLAANDDDSFRQSAEVYLRYGQAEQEKIDSYVRAFRPEELTFYSRCSRPE,not failed
3,ADGILVVDLKGNIEFCNQQFLKMWGIAPGFIDSHNDTETIQYVLNQLKNPEEFLKQIKELYNNPKQESFDELHFKDGKIFERYSQPHWLDN,failed
4,ADWPDRFNLRKPFEKLLYSGSRTGFRLASERSAKQAKGPRKADPDGLFDLSFSDDQQMLVDMLEGFALEVLRPLAHDADAEASLPAELLNQALELGLTHYGVGEVHGGMAGERTTVTTALIAEALAKGDLTLAAALLVPLSAANCIRRWGSPSQQAQWLPAFVSEEGAPLTAIAVNEPSLLFDPQKLATRARRKGSHYLLSGEKCLVLRGLEASRLIVAAKTDEGPALFLVEASAKGVERRAEPAMGLKAGGTARLRLKSVKVPADNRLAAEHFDYRAFLDHASLAWCALALGTGQAALDYVIAYCNEREAFGEPISHRQGVAFMVADIAIELDAMRLMVWRACALAERGQPFQREAYLARLLCAEKAMKIGTDAVQLLGGHGFTKEHPAERWYR,failed
5,AEEKKEDEFKTIKIEKLDGGITKLVLNRPDRLNTISPEVLDEIDRAITQLWNDKDTRVIVITGAGDRAFSAGADLGGSIITHPFDFLEHNRKGERVFTRLREIPKPVIAAINGYALGGGLEIAMNCDIRLAKKSAVLGLPEVGLGILPGWSGTQRLVKLVGISRAMQLALTGERITAEEAERWGLVNKVFDDDKFEEEVMNYAKNIAERCAPISMALIKRLINKGGEVPMDIGLEWECTAAGLLFATEDMREGISAFLRKDKPQFKGR,failed
6,AEIDTSSIVEMVQGAEDAPVEVIEYASYTCPHCAAFHEGPYKKLKADFIDTGKVRFIYREVYFDRYGLWASMVARCAGPEKFFGISDLIYKGQAEWSRAGGPAEIAEELRKIGRLAGIENDKLEACLGDATKAQTLVAWYQEHATRDDINSTPSFMINGKKVENQAYDGFKALIEAELGN,not failed
7,AEIYNKDGNKVDLYGKAVGLHYFSKGNGENSYGGNGDMTYARLGFKGETQINSDLTGYGQWEYNFQGNNSEGADAQTGNKTRLAFAGLKYADVGSFDYGRNYGVVYDALGYTDMLPEFGGDTAYSDDFFVGRVGGVATYRNSNFFGLVDGLNFAVQYLGKNERDTARRSNGDGVGGSISYEYEGFGIVGAYGAADRTNLQEAQPLGNGKKAEQWATGLKYDANNIYLAANYGETRNATPITNKFTNTSGFANKTQDVLLVAQYQFDFGLRPSIAYTKSKAKDVEGIGDVDLVNYFEVGATYYFNKNMSTYVDYIINQIDSDNKLGVGSDDTVAVGIVYQF,not failed
8,AEPVLGDDGLYQLDWYLQSFLDLKEDLEGATAKGKRFAILWGLKGCPYCKKLHDVHMRDPAIESYIRDNFEIVHLNHIGAREVTDFDGSKLSEKAFAQAYGIRFTPSLQFFPESADGLAAKKPQDREVARMPGLLEPPEFLAMFKYVREKGYQSM,failed
9,AESLSGLSLKLVKKEPRQLELTWAGSRPRNPGGNLSYELHVLNQDEEWHQMVLEPRVLLTKLQPDTTYIVRVRTLTPLGPGPFSPDHEFRTSPP,not failed
10,AGGRERRVAVLFCDLRDFTRIAEHRLPYDTVFLLNRYFEVVGEAVEGSGGVVDKFIGDGALAIFGLKTPLPEACRQALSAAARLSQGIRALNQTFEGELEQPLRLAIGLHAGPAIIGEMGYGQATSLTVVGDTINTASRLEGLAKEHDVELAVSAELVERAGLSFEGHRRLEIGLRGRKATLETWIIGDAAQLSLSLP,failed
11,AGNRASNQGNSQPQQKYTVMSGTPEKILEHFLETIRLEATLNEATDSVLNDFIMMHCVFMPNTQLCPALVAHYHAQPSQGTEQEKMDYALNNKRRVIRLVLQWAAMYGDLLQEDDVSMAFLEEFYVSVSDDARM,failed
12,AIAAQKISEAHEHIAKAEKYLKTSFMKWKPDYDSAASEYAKAAVAFKNAKQLEQAKDAYLQEAEAHANNRSLFHAAKAFEQAGMMLKDLQRMPEAVQYIEKASVMYVENGTPDTAAMALDRAGKLMEPLDLSKAVHLYQQAAAVFENEERLRQAAELIGKASRLLVRQQKFDEAAASLQKEKSMYKEMENYPTCYKKCIAQVLVQLHRADYVAAQKCVRESYSIPGFSGSEDCAALEDLLQAYDEQDEEQLLRVCRSPLVTYMDNDYAKLAISLKVPGGGGGKKKPSASASAQPQEEEDDEYAGGLC,failed
13,AIAASGKRKGLSFDDKKTRLLELFNETCDFYTLKELEKIAPKLKGIITQSVKDVLQSLVDDDLVNSDKCGVQTIYWCLPSEAVAKRQRRLDALQQQLAEKRQKLTALQRQLVQVQAGREDSVERTAVLERLAACEAAWRERQRTLESYLECDPDVLAQRETETKTLIEQANRWTDNLYVIRSYVQRNLGVDLDLFDQQFELKPALQYLE,failed
14,AIADELNSPLGERAQGASLAHVVWSDPQWLERYPLTFENVLTYFSRSPFYDPTCNNELVRMQMHPELQGEMLYYTQREEELLLGMQGVEYVPLCSSDAHELFIIRKQVRRSADEVHVTNLYYILYGQVYEAPAFSTVLLVRLRQSADFLVRSLGLLRQWLSKKEYGEPGATGHGHEDTLLLQLLRKAQQRNRQL,failed
15,AIAEAKTLGIATPRKPVLSVSARKLKDNAADWHNLILKWDSLSDKGFTTASSIANLKVSLLSKEKVELESSSPASMEEEEKTNLDYDKGLEALCEELQAILDGLTKIQMKMEKLSSTTKGICELENYHYREESSRPPLFHTWPTAFFYEVSRRLSEAYKKELLLKHTIGAELAHTADRNLSLTYLSMWLHQPYIESNSKLQLESMLLETGHRAL,failed
16,AIANSLVRRSAQQLSLWRTYCIKHNASEAASPGRNAGRPNYEEFIGRHQRQAQCSIVVQVSSEKSYEELYNYCSSFGSIMGAHHYCVRQDETLHYILLEYATSDEAAAAIGAGVTNGELSGVPVRSPFLWFRAAGGGRRSPKLVANTAPALLSLDGTRQVDQRHLLGLLRGAADIEEQVQQLYEHTRLNELGIRMRFLAALQVQQAIAGMFPAAQAQPFGSSVNGFGRMGCDLDLILRFDSDMGAKIPLEAAVPSRLVYHTKENLSNGRSQTQRHMECFGDMLHLFLPGVCHVRRILQARVPIIKYHHEHLDLEVDLSMSNLTGFYMSELLYMFGEMDPRVRPLTFTIRRWAQTCGLTNPSPGRWISNFSLTCLVMFFLQQLRQPILPTIGALAKAAEPGDSRVTEDGINCTFTRNVDRLGFRSRNQSSLSELLLQFFEFYSQFDFHNRAISLNEGKPLSKPDHSAMYIVNPLEQLLNVSKNVSLEECERLRIEVRNAAWVLESEVENASVPEGDGQELSCGLLNLFKHPEKAVIRPNMFFKPRMVEVSDLFEQKEAGATSSSTPPTPAITYKSASVRQQVQSIKAATRSELKQLRGSGSSVPTSSPNNRRRS,failed
17,AIARTDSSKMTDVESGVANFASSARAGRRNALPDIQSSAATDGTSDLPLKLEALSVKEDAKEKDEKTTQDQLEKPQNEEK,failed
18,AIASSAIERKSLDPSEEPVDEVLQIPPSLLTCGGCQQNIGDRYFLKAIDQYWHEDCLSCDLCGCRLGEVGRRLYYKLGRKLCRRDYLRLFGQDGLCASCDKRIRAYEMTMRVKDKVYHLECFKCAACQKHFCVGDRYLLINSDIVCEQDIYEWTKINGMI,failed
19,AIASSAPAPGPAPASLTLWDEEDFQGRRCRLLSDCANVCERGGLPRVRSVKVENGVWVAFEYPDFQGQQFILEKGDYPRWSAWSGSSSHNSNQLLSFRPVLCANHNDSRVTLFEGDNFQGCKFDLVDDYPSLPSMGWASKDVGSLKVSSGAWVAYQYPGYRGYQYVLERDRHSGEFCTYGELGTQAHTGQLQSIRRVQH,failed
